Laboratory results published in patent publication US20260139065A1 (Novartis, published 2026).

Target: T1, BAFF-R (B-cell activating factor receptor) (human, UniProt Q96RJ3 1-78, limits assumed)
T1 construct: also called BAFF receptor; BR3
T1 sequence (looked up): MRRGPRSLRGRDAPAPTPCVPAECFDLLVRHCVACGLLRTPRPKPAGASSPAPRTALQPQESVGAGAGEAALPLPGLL
Assay: in vitro experiments (method not given); used as a parameter of the tissue receptor occupancy model

B1: ianalumab (antibody, human IgG1, kappa, V domains shown)
VH: QVQLQQSGPGLVKPSQTLSLTCAISGDSVSSNSAAWGWIRQSPGRGLEWLGRIYYRSKWYNSYAVSVKSRITINPDTSKNQFSLQLNSVTPEDTAVYYCARYDWVPKIGVFDSWGQGTLVTVSS
VL: DIVLTQSPATLSLSPGERATLSCRASQFISSSYLSWYQQKPGQAPRLLIYGSSSRATGVPARFSGSGSGTDFTLTISSLEPEDFAVYYCQQLYSSPMTFGQGTKVEIKR
notes: also called VAY736; anti-BAFF-R antibody
B1 was tested, and the Kd was 0.046 nM.
